This note sets out measurements from patent US20240287163A1 (Chugai, published 2024).

Experiment [1] concerns the target T1, recombinant human C1r2s2 tetramer (human, UniProt P09871 16-688; P00736 18-705).
T1 construct: C1s and C1r co-expressed in HEK293 and purified from the supernatant as tetramer; also called hC1r2s2
T1 chain 1: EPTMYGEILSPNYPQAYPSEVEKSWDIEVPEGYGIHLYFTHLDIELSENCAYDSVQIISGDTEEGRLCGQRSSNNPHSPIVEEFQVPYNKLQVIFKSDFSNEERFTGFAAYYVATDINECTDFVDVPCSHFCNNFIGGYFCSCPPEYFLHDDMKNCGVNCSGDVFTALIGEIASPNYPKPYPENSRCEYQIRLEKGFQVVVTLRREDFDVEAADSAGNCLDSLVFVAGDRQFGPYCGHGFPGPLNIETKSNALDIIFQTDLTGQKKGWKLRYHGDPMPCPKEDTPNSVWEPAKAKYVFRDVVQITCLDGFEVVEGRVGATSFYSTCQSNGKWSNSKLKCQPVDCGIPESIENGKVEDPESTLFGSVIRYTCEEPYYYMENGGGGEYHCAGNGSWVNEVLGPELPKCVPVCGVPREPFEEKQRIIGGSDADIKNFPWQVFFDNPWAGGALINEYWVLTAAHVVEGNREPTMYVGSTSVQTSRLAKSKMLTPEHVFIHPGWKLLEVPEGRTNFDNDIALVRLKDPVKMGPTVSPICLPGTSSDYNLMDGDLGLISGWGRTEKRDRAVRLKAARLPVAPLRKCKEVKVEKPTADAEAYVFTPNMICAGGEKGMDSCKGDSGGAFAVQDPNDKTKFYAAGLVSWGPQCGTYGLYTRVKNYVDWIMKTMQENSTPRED
T1 chain 2: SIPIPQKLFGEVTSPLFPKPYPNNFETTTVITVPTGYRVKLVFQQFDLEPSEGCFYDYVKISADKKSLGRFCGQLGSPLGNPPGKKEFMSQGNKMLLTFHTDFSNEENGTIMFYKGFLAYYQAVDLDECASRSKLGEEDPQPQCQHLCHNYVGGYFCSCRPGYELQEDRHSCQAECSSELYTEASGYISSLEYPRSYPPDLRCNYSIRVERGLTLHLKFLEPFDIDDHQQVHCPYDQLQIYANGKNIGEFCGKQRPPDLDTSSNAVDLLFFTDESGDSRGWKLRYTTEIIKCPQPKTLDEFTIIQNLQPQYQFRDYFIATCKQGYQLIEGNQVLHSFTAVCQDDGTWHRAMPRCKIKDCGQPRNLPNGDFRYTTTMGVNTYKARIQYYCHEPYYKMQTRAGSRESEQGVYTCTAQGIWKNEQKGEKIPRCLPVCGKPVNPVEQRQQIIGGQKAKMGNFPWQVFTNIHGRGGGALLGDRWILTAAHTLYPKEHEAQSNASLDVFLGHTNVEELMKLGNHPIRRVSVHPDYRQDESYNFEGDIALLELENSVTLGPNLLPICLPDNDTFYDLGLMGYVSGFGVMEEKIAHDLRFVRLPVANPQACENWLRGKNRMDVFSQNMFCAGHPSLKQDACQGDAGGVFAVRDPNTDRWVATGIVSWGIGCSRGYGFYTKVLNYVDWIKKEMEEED
The experiment is described as follows: SPR (Biacore T200), 37 C, pH 7.4; hC1r2s2 captured by IPN009, antibody as analyte. The protocol: (§1) The binding property of each sample at pH7.4 and pH6.0 was determined at 37° C. using BIACORE® T200 instrument (Cytiva). […] 20 mM ACES, 150 mM NaCl, 1.2 mM CaCl₂, 1 mg/mL BSA (not containing IgG), 1 mg/mL CMD, 0.05% Tween® 20, 0.005 w/v % NaN₃, pH7.4 or pH6.0 buffer was used as the running buffer. […] The antibody solution was added thereto at 30 μL/min for 120 seconds, the running buffer was then added at 30 μL/min for 180 seconds, and the dissociation constant (KD) of each antibody for hC1r2s2 and cyC1r2s2 was calculated. […] The sensor surface was regenerated every cycle, using 3 M MgCl2 (prepared in-house). The KD value was calculated using BIACORE® T200 evaluation software version 2.0 (Cytiva). The binding strengths under each pH condition were compared by dividing the KD value at pH6.0 with the KD value at pH7.4.
For orientation: SPR reads the build-up and loss of mass on a sensor chip optically.

Experiment [2] addresses T1, recombinant human C1r2s2 tetramer. The experiment is described as follows: SPR (Biacore T200), 37 C, pH 6.0; hC1r2s2 captured by IPN009, antibody as analyte. The method, then:
as §1

Experiment [3] has as its target T2, recombinant cynomolgus C1r2s2 tetramer (cynomolgus monkey, limits assumed).
T2 construct: also called cyC1r2s2; monkey C1r2s2
T2 chain 1: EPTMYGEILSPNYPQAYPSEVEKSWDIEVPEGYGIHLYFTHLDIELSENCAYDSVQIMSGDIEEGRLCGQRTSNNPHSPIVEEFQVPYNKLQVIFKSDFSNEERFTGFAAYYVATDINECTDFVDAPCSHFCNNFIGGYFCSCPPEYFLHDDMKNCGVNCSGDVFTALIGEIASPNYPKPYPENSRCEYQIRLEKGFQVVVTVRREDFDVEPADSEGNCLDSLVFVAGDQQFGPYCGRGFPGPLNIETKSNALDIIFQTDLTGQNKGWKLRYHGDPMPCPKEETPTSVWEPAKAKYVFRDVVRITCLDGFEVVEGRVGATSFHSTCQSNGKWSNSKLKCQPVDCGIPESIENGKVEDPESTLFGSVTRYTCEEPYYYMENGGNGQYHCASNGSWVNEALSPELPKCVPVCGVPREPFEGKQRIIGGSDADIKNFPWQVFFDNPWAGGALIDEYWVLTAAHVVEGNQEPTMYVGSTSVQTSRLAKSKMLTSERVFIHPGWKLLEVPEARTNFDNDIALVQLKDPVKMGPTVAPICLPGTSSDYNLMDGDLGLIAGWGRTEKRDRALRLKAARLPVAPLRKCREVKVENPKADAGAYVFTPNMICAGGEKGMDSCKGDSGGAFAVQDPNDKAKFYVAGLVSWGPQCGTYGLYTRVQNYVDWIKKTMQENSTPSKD
T2 chain 2: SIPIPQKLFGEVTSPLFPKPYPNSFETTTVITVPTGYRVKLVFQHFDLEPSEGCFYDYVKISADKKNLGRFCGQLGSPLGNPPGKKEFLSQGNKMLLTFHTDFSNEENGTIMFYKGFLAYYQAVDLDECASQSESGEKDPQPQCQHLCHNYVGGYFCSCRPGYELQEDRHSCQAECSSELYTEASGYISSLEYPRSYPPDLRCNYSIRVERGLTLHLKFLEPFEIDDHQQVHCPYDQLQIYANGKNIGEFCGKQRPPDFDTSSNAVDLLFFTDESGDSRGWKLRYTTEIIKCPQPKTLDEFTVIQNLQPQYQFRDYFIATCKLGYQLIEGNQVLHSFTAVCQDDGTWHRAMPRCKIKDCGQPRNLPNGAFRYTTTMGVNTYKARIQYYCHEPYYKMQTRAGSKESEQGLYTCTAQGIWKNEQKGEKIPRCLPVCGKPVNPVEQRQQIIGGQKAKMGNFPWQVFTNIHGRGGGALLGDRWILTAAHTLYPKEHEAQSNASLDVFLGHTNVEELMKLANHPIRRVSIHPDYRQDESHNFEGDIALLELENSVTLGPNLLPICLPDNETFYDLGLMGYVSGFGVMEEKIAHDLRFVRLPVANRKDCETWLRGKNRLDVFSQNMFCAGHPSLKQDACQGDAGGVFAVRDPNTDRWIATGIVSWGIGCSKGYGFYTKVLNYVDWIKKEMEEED
As to the kind of experiment: SPR (Biacore T200), 37 C, pH 6.0; cyC1r2s2 captured by IPN009, antibody as analyte. The method, then:
as §1

Experiment [4] concerns the target T2, recombinant cynomolgus C1r2s2 tetramer. The experiment is described as follows: SPR (Biacore T200), 37 C, pH 7.4; cyC1r2s2 captured by IPN009, antibody as analyte. The method, then:
as §1

Experiment [5] has as its target T1, recombinant human C1r2s2 tetramer. The experiment is described as follows: SPR (Biacore T200), 37 C; ratio of KD at pH 6.0 to KD at pH 7.4. The method, then: as §1
Experiment [6] addresses T2, recombinant cynomolgus C1r2s2 tetramer. Described as above. The method, then: as §1

One may read the Kd as the concentration at which binding is half-saturated.

B1: COS0637pHv17-G1A3FcgSil+LowpI (antibody, V domains shown)
VH: QVQLVESGGGVVQPGRSLRLSCAASGFTFSAYAMNWIRQPPGKGLEWIGLIYGSGHEFYASWAEERVTISVDTSKNQFSLKLSSVTAADTAVYYCARGRSKNYNSDFHLWGQGTLVTVSS
VL: DIQMTQSPSSLSASVGDRVTITCQAHEILHDKKNLAWYQQKPGQPPKLLIYGASQRESGVPSRFSGSGSGTDFTLTISSLQPEDFATYYCHGEFPHSSADLNHFGQGTKVEIKR
notes: VH 24, VL 55, CH 45, CL 23
In the case of B1, the Kd in experiment [1] was 0.23 nM; in experiment [2], 32.9 nM; in experiment [3] it was 106 nM; in experiment [4] it was 0.252 nM. Also, the “KD (pH 6.0)/KD (pH 7.4)” value was found to be 143 in experiment [5] and 421 in experiment [6].

B2: COS0637pHv15-G1A3FcgSil+LowpI (antibody, V domains shown)
VH: QVQLVESGGGVVQPGRSLRLSCAASGFTFSAYAMNWIRQPPGKGLEWIGLIYGSGHEFYASWAEERVTISVDTSKNQFSLKLSSVTAADTAVYYCARGRSKNYNSDFHLWGQGTLVTVSS
VL: DIQMTQSPSSLSASVGDRVTITCQANEILHDKKNLAWYQQKPGQPPKLLIYGASTLESGVPSRFSGSGSGTDFTLTISSLQPEDFATYYCHGEFSYHSADLNTFGQGTKVEIKR
notes: VH 24, VL 59, CH 45 (G1A3FcgSil+LowpI), CL 23
For B2, the dissociation constant (Kd) in experiment [1] was found to be 0.399 nM; in experiment [2], 318 nM; in experiment [3], 111 nM; in experiment [4] it was 0.492 nM. Also, the “KD (pH 6.0)/KD (pH 7.4)” value in experiment [5] was 797; in experiment [6], 226.

B3: COS0637pHv8-G1A3FcgSil+LowpI (antibody)
heavy: QVQLVESGGGVVQPGRSLRLSCAASGFTFSAYAMNWIRQPPGKGLEWIGLIYGSGHEFYASWAEERVTISVDTSKNQFSLKLSSVTAADTAVYYCARGRSKNYNSDFHLWGQGTLVTVSSASTKGPSVFPLAPSSRSTSESTAALGCLVKDYFPEPVTVSWNSGALTSGVHTFPAVLQSSGLYSLSSVVTVPSSSLGTQTYICNVNHKPSNTKVDKRVEPKSCDKTHTCPPCPAPELRRGPSVFLFPPKPKDTLMISRTPEVTCVVVDVSQEDPEVQFNWYVDGVEVHNAKTKPREEQYNSTYRVVSVLTVLHQDWLNGKEYKCKVSNKALPAPIEKTISKAKGQPREPQVYTLPPSQEEMTKNQVSLTCLVKGFYPSDIAVEWESNGQPENNYKTTPPVLDSDGSFFLYSKLTVDKSRWQEGNVFSCSVLHEALHAHTTRKELSLSP
light: DIQMTQSPSSLSASVGDRVTITCQANQILHDKKNLAWYQQKPGQPPKLLIYGASTLESGVPSRFSGSGSGTDFTLTISSLQPEDFATYYCHGEFSYSSADLNTFGQGTKVEIKRTVAAPSVFIFPPSDEQLKSGTASVVCLLNNFYPREAKVQWKVDNALQSGNSQESVTEQDSKDSTYSLSSTLTLSKADYEKHKVYACEVTHQGLSSPVTKSFNRGEC
notes: built from VH+CH and VL+CL
For B3, the dissociation constant (Kd) in experiment [1] was found to be 0.272 nM; in experiment [2], 19.3 nM; in experiment [3] it was 30.3 nM; in experiment [4], 0.365 nM. The figures for the “KD (pH 6.0)/KD (pH 7.4)” value in experiment [5] and in experiment [6] were 71 and 83, respectively.

B4: COS0637pHv8-TT91R (antibody, human IgG1)
heavy: QVQLVESGGGVVQPGRSLRLSCAASGFTFSAYAMNWIRQPPGKGLEWIGLIYGSGHEFYASWAEERVTISVDTSKNQFSLKLSSVTAADTAVYYCARGRSKNYNSDFHLWGQGTLVTVSSASTKGPSVFPLAPSSKSTSGGTAALGCLVKDYFPEPVTVSWNSGALTSGVHTFPAVLQSSGLYSLSSVVTVPSSSLGTQTYICNVNHKPSNTKVDKRVEPKSCDKTHTCPPCPAPEYLGGDSVFLFPPKPKDVLMISRTPEVTCVVIDVSHEDPEVKFNWYVDGVEVHNAKTKPREEQYNSTYRVVSVLPVLHRDWLNGKEYKCKVSNKALPKPIEKTISKAKGQRREPQVYTLPPSREEMTKNQVSLTCLVKGFYPSDIAVEWESNGQPENNYKTTPPVLDSDGSFFLYSKLTVDKSRWQQGNVFSCSVLHEALHAHTTRKELSLSP
light: DIQMTQSPSSLSASVGDRVTITCQANQILHDKKNLAWYQQKPGQPPKLLIYGASTLESGVPSRFSGSGSGTDFTLTISSLQPEDFATYYCHGEFSYSSADLNTFGQGTKVEIKRTVAAPSVFIFPPSDEQLKSGTASVVCLLNNFYPREAKVQWKVDNALQSGNSQESVTEQDSKDSTYSLSSTLTLSKADYEKHKVYACEVTHQGLSSPVTKSFNRGEC
notes: also called COS637pHv8-TT91R
For B4, the Kd in experiment [1] is 0.249 nM; in experiment [2], 12.5 nM; in experiment [3] it was 23.3 nM; in experiment [4], 0.345 nM. Further, the “KD (pH 6.0)/KD (pH 7.4)” value in experiment [5] was found to be 50.2; in experiment [6], 67.5.
